By EC50 is commonly meant the concentration giving half of the maximal effect. For orientation: stoichiometry N means the number of molecules, sites or subunits per partner or assembly.

This is an account of results in article PMC3969988.

The target of experiment [1] is T1, recombinant human CAP1 (human), Q01518.
T1 chain: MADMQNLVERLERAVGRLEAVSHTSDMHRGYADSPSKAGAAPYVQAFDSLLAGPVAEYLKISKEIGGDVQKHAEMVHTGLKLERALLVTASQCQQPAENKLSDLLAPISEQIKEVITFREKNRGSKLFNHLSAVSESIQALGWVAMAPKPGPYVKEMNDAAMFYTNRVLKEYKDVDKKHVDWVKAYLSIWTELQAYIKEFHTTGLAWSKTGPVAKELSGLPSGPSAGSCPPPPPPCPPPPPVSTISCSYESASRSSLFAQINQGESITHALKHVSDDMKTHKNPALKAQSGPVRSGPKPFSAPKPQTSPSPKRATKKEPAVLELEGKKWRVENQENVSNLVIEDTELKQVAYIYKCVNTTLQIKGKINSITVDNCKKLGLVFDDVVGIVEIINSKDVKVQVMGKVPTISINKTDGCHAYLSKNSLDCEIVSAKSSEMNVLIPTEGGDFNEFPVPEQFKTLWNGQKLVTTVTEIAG
Put plainly: ELISA. Particulars: remark: other sources report otherwise. A general note: In an ELISA, binding on a coated surface is turned into a signal by an enzyme label.

For experiment [2], the target named is T2, adenovirus-delivered human resistin (human), Q9HD89.
T2 chain: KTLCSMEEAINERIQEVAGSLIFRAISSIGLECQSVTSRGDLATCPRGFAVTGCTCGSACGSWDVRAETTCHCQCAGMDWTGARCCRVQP
Put plainly: non-reducing SDS gel. Particulars: remark: other sources report otherwise.

Several values for one entry are separate records, joined by “and”; a condition that tells them apart may be missing. Identical values can stand only once.

B1: non-Fc-conjugated recombinant human resistin protein, Q9HD89 19-108 (ligand)
chain: T2 chain
As for B1, the EC50 in experiment [1] turned out to be 784 nM.

B2: adenovirus-delivered human resistin, Q9HD89 19-108 (ligand)
chain: T2 chain
Take B2: in experiment [2], the stoichiometry N is 3 and 2.
